# Measured values: US20220023333A1, “METHOD FOR INCREASING CANCER PATIENT'S HAEMOGLOBIN LEVEL” (priority 2019, published 2022)
# Test: Blood haemoglobin level in cancer patients (case examples 1-9)
# Type: in vivo, human
# Description: […] Diagnosis: progressive diffuse-nodular multiple myeloma of the stage IIIB. Myelogenic nephropathy, stage III CKD, terminal stage. Chronic programmed dialysis. The initial level of haemoglobin was 72 g/l. The receiving of EPO 20000 IU and iron preparations was prescribed for a month, as a result of which the level of haemoglobin increased to 84 g/l. However, the patient's condition worsened, and there were diagnosed acute transmural myocardial infarction and weight loss in the patient. The patient was prescribed the administration of 30 ml of the sterile pyrogen-free aqueous solution of the poloxamer comprising 13.3 wt % poloxamer-188 (Emuxol-268 of Grade “A”) and water for injection as the remaining part for 30 days. The level of haemoglobin was 116 g/l. Then, 30 ml of the said poloxamer solution was administered to the patient on a daily basis during 9 courses of chemotherapy (cyclophosphan and boramilane), while EPO and iron preparations were no longer prescribed. The level of haemoglobin was maintained in the range of 116-125 g/l.
# […] Diagnosis: locally advanced or metastatic bladder cancer of the 4t^h stage with lumbar vertebral metastases. The initial level of haemoglobin was 129 g/l.
# Immunotherapy 1: the patient underwent a course of the therapy with the nivolumab preparation (Opdivo) for 4 months. […]
substance,measurement,setting,value
nivolumab,level of haemoglobin after therapy,"Example 2, Patient A, bladder cancer 4th stage, nivolumab (Opdivo) for 4 months with regular donated red blood cell transfusion, initial level 129 g/l",123000 µg/mL
same,level of haemoglobin after 1 course,"Example 5, Patient D, right kidney tumor with metastases, nivolumab (Opdivo) immunotherapy, 1 course, initial level 148 g/l",104000 µg/mL
